Experiments:
EPHB2 = EPHB2 (UniProt P29323); assay: phosphorylation enrichment, bacterial display (enrichment ratio); higher = better substrate or ligand; peptides without Tyr show the background
Hck = Hck (UniProt P08631); assay: as above
AncSZ = assay: as above
Fer (mouse) = assay: as above
c-Abl (mouse) = assay: as above
Fyn = Fyn (UniProt P06241); assay: as above
MERTK = MERTK (UniProt Q12866); assay: as above
EPHB1 = EPHB1 (UniProt P54762); assay: as above
Fes = Fes (UniProt P07332); assay: as above
FGFR1 = FGFR1 (UniProt P11362); assay: as above
Chain of FGFR1 (P11362 whole entry, looked up): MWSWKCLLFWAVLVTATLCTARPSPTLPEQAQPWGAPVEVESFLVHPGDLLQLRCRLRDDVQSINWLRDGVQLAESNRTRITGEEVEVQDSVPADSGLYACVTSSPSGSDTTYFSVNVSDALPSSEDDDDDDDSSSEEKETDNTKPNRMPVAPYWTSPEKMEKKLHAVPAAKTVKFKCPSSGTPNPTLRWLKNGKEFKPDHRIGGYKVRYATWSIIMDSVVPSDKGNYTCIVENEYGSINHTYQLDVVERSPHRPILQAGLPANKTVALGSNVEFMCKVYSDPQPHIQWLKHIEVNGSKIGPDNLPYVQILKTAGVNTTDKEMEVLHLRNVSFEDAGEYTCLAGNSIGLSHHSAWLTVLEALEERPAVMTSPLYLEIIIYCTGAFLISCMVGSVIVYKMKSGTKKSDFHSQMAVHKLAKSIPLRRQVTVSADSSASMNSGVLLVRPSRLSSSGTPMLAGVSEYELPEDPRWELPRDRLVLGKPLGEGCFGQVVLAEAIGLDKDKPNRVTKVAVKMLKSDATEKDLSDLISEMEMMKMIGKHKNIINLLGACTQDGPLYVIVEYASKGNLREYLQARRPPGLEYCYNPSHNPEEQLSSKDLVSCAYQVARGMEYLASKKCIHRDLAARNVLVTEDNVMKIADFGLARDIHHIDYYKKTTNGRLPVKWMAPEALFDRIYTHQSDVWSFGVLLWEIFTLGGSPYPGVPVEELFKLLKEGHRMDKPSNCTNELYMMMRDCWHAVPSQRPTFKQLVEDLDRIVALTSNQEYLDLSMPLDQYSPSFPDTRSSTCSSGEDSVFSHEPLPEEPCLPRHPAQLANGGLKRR

FGFR3 = FGFR3 (UniProt P22607); assay: as above
Chain of FGFR3 (P22607 whole entry, looked up): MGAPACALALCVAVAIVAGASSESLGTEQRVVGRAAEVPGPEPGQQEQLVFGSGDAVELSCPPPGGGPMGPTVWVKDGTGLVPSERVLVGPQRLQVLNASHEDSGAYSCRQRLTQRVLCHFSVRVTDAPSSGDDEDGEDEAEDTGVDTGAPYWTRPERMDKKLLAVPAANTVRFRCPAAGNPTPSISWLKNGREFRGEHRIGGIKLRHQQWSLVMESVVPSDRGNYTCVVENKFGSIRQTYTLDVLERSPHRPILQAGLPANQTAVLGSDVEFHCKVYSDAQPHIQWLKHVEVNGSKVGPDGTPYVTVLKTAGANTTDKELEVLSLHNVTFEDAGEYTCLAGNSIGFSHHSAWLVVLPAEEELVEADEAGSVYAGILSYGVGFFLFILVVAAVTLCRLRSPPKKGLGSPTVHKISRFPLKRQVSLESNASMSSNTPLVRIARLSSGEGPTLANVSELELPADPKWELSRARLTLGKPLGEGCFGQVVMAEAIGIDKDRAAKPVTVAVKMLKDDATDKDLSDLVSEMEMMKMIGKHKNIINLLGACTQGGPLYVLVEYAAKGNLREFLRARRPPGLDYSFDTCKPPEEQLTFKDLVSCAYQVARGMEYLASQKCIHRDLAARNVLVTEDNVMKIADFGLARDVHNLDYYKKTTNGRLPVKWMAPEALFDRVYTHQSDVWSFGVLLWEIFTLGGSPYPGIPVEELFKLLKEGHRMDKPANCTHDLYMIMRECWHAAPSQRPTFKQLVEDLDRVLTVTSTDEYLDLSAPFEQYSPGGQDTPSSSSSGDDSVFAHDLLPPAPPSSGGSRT

Jak2 = Jak2 (UniProt O60674); assay: as above
c-Src = assay: as above
SHP2-C SH2 = assay: SH2 binding enrichment of the phosphorylated peptide, bacterial display (enrichment ratio); higher = better substrate or ligand; peptides without Tyr show the background
Grb2 SH2 = Grb2 SH2 (UniProt P62993); assay: as above
Chain of Grb2 SH2 (P62993 whole entry, looked up): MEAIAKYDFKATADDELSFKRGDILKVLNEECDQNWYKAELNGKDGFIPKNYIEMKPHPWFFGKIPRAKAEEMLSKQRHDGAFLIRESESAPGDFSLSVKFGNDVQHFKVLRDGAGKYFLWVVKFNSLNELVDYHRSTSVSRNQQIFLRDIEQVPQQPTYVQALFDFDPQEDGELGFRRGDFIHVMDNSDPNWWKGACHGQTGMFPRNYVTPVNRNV

c-Src SH2 = assay: as above
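Wherever SH2 binding enrichment of the phosphorylated peptide, bacterial display is given: peptide library displayed on the E. coli surface as eCPX fusions, selected cells deep-sequenced, score is each peptide's frequency after selection divided by its frequency in the input.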
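Wherever phosphorylation enrichment, bacterial display is given: 11-residue human phosphosite peptides and single-mutation variants displayed on the E. coli surface, counted by deep sequencing, each peptide's frequency after selection divided by its frequency in the unselected input library; frequency after pTyr selection over input frequency; kinase dosed for 20-30% of maximal phosphorylation in three min.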

Chain of MERTK (Q12866 whole entry, looked up): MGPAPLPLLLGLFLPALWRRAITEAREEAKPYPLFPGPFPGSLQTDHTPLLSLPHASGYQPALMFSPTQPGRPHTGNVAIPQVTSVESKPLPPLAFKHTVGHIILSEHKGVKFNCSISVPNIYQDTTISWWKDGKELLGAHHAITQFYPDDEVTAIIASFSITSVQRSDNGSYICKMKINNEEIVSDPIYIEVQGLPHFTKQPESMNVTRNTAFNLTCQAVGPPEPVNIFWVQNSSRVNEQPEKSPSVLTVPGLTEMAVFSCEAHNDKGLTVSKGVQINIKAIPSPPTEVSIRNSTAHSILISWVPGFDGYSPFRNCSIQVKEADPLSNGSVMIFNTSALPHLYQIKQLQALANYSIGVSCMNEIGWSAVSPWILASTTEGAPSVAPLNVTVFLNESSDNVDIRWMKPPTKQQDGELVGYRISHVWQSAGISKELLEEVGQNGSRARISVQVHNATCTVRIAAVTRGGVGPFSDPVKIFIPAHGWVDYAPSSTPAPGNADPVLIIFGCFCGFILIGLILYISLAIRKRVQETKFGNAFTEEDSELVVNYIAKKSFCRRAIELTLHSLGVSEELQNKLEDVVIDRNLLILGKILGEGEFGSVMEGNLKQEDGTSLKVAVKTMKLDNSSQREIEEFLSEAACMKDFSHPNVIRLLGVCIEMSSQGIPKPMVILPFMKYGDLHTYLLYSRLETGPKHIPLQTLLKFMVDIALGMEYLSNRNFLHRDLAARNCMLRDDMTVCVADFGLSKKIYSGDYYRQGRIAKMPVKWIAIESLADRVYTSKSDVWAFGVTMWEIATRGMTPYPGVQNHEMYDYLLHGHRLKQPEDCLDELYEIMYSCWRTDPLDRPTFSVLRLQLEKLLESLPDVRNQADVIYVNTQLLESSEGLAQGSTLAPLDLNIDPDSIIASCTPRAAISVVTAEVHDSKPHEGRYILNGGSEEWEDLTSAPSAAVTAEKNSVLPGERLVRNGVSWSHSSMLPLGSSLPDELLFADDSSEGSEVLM
Chain of Fyn (P06241 whole entry, looked up): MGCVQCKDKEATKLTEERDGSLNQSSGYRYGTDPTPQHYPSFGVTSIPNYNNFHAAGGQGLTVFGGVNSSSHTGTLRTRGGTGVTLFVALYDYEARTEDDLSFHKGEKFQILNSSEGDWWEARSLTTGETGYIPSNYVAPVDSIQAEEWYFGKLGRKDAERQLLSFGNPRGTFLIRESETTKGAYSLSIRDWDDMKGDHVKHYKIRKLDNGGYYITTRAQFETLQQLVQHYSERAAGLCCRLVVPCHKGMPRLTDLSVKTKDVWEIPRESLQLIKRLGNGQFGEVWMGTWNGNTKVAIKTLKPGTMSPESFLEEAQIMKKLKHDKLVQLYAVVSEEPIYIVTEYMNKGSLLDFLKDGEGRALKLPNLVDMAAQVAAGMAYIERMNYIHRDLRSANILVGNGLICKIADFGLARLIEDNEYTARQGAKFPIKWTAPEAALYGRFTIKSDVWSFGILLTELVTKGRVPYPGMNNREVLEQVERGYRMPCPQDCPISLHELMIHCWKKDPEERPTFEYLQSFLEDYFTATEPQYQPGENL
Chain of EPHB1 (P54762 whole entry, looked up): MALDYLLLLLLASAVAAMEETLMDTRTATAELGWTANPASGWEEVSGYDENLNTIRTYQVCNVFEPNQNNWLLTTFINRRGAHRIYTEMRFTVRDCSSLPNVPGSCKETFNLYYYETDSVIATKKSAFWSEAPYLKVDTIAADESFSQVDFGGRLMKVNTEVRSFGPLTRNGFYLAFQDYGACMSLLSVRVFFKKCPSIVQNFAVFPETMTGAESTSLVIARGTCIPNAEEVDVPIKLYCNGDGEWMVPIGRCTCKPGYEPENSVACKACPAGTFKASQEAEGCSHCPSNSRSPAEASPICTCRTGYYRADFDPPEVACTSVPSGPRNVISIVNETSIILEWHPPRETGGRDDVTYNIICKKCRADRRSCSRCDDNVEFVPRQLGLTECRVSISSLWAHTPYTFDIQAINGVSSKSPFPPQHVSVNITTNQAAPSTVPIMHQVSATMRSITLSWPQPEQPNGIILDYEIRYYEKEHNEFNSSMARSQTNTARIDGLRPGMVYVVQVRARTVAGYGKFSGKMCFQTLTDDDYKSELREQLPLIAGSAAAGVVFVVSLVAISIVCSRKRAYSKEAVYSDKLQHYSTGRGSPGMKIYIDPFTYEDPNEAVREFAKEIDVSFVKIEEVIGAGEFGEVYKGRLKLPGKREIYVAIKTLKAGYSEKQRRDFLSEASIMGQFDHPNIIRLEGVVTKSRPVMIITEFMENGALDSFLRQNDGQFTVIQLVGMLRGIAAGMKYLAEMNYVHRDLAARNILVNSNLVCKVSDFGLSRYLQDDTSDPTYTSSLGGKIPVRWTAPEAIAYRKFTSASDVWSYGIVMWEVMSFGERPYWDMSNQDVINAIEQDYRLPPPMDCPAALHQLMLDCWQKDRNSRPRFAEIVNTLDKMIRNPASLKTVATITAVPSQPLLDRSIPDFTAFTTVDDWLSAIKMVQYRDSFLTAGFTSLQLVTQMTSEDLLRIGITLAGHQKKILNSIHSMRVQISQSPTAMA
Chain of Hck (P08631 whole entry, looked up): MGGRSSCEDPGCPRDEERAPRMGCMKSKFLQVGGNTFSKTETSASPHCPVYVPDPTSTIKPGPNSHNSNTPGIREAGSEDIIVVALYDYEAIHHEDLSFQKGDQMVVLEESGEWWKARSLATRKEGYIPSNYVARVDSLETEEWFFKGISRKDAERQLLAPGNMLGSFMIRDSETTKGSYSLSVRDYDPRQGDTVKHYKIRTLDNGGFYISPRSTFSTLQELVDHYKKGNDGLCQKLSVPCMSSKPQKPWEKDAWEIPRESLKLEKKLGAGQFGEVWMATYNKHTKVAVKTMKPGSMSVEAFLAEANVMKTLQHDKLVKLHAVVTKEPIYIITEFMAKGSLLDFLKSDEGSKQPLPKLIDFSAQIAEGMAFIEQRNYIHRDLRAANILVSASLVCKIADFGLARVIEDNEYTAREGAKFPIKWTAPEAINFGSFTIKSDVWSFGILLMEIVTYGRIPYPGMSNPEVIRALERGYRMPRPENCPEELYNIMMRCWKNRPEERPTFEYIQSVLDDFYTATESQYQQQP

| Sequence | phosphorylation enrichment (EPHB2) | phosphorylation enrichment (Hck) | phosphorylation enrichment (AncSZ) | phosphorylation enrichment (Fer (mouse)) | phosphorylation enrichment (c-Abl (mouse)) | phosphorylation enrichment (Fyn) | phosphorylation enrichment (MERTK) | phosphorylation enrichment (EPHB1) | phosphorylation enrichment (Fes) | phosphorylation enrichment (FGFR1) | phosphorylation enrichment (FGFR3) | phosphorylation enrichment (Jak2) | phosphorylation enrichment (c-Src) | SH2 binding enrichment (SHP2-C SH2) | SH2 binding enrichment (Grb2 SH2) | SH2 binding enrichment (c-Src SH2) |
| --- | --- | --- | --- | --- | --- | --- | --- | --- | --- | --- | --- | --- | --- | --- | --- | --- |
| TSYSGYRYHRH [NKAPL_Y94] | 0.42 | 0.628 | 0.52 | 0.418 | 0.46 | 0.891 | 0.382 | 0.536 | 0.501 | 0.407 | 0.433 | 0.439 | 0.555 | 1.24 | 0.985 | 0.649 |
| TVEDHDYEGGI [TKT_Y563_Y563D] | 0.583 | 0.5 | 1.08 | 0.559 | 0.654 | 0.478 | 0.49 | 0.543 | 1.17 | 0.481 | 0.727 | 0.963 | 0.526 | 1.26 | 1.15 | 0.651 |
| TVLWQYTGTRP [UGT1A1_Y337_R336Q] | 0.43 | 0.499 | 0.903 | 0.419 | 0.436 | 0.398 | 0.345 | 0.539 | 1.04 | 0.366 | 0.645 | 1.01 | 0.22 | 0.793 | 1.01 | 0.455 |
| TYGVVYRAKDK [CDK11B_Y453] | 0.59 | 9.58 | 0.595 | 0.733 | 0.531 | 11.6 | 1.31 | 0.75 | 1.16 | 0.583 | 0.42 | 0.525 | 8.45 | 0.718 | 1.11 | 0.491 |
| TYVVLYDAELT [ERCC4_Y581_R576T] | 2.67 | 0.891 | 1.37 | 0.515 | 0.67 | 0.87 | 2.56 | 4.46 | 1.16 | 1.79 | 1.52 | 1.05 | 0.795 | 1.36 | 1.64 | 1.53 |
| VAMDDYLKNVM [LRRK2_Y707] | 0.409 | 0.418 | 0.903 | 0.333 | 0.659 | 0.449 | 0.51 | 0.517 | 0.956 | 0.493 | 0.59 | 0.831 | 0.409 | 0.648 | 1.01 | 0.418 |
| VCRHNYGVVES [HLA-DRB1_Y112_Y107V] | 1.5 | 0.484 | 0.768 | 0.428 | 0.543 | 0.398 | 0.484 | 0.82 | 0.793 | 0.547 | 0.566 | 0.659 | 0.361 | 0.801 | 0.828 | 1.13 |
| VDSLRYIYPKL [EIF2B3_Y92_A87V] | 0.506 | 0.524 | 0.757 | 0.532 | 0.553 | 0.48 | 0.489 | 0.561 | 0.844 | 0.453 | 0.655 | 0.733 | 0.424 | 1.43 | 0.88 | 10.7 |
| VDTAMYATMQR [TPO_Y55] | 0.672 | 5.09 | 0.697 | 0.519 | 0.705 | 3.02 | 0.764 | 0.568 | 0.706 | 0.518 | 0.507 | 0.531 | 3.92 | 0.764 | 0.878 | 1.55 |
| VEDQFYCVDCF [FHL1_Y208_YF] | 0.697 | 0.926 | 1.61 | 0.874 | 0.867 | 1.44 | 5.12 | 0.748 | 1.29 | 0.703 | 0.863 | 1.35 | 1.73 | 1.64 | 1.71 | 1.32 |
| VEFAKYGSLRG [RET_Y809_YF] | 0.458 | 0.488 | 0.629 | 0.4 | 0.622 | 0.528 | 0.397 | 0.403 | 0.664 | 0.417 | 0.469 | 0.541 | 0.437 | 0.82 | 0.817 | 0.584 |
| VEYAKYGSLRG [RET_Y809] | 0.409 | 0.758 | 0.544 | 0.395 | 0.824 | 1.21 | 0.473 | 0.441 | 0.552 | 0.349 | 0.47 | 0.335 | 1.56 | 2.61 | 0.461 | 0.583 |
| VFDMLYQVANL [USP24_Y1087_L1089V] | 5.28 | 4.24 | 1.79 | 11.7 | 2.06 | 2.92 | 2.78 | 2.75 | 1.06 | 0.943 | 0.923 | 0.863 | 4.11 | 1 | 1.16 | 0.769 |
| VGTKRYRAPEV [ACVRL1_Y375_M376R] | 0.338 | 0.305 | 0.443 | 0.364 | 0.499 | 0.379 | 0.339 | 0.308 | 0.565 | 0.298 | 0.363 | 0.351 | 0.335 | 0.861 | 0.892 | 0.528 |
| VGTTAYVAPEA [IRAK4_Y354_M355V] | 0.445 | 0.41 | 0.888 | 0.424 | 0.653 | 0.392 | 0.427 | 0.558 | 0.911 | 0.412 | 0.507 | 0.79 | 0.433 | 0.76 | 0.938 | 0.605 |
| VHHLVYHHHHH [CACNA1H_Y519] | 0.696 | 0.65 | 0.777 | 0.896 | 0.963 | 0.546 | 0.52 | 0.725 | 1.99 | 0.55 | 1.23 | 1.66 | 0.602 | 1.36 | 1.28 | 1.15 |
| VHNLDYFKQTT [FGFR3_Y647_K650Q_YF] | 0.545 | 0.525 | 0.767 | 0.48 | 0.602 | 0.652 | 0.434 | 0.56 | 0.958 | 0.743 | 0.819 | 1.31 | 0.542 | 0.573 | 0.795 | 0.449 |

| Sequence | phosphorylation enrichment (EPHB2) | phosphorylation enrichment (Hck) | phosphorylation enrichment (AncSZ) | phosphorylation enrichment (Fer (mouse)) | phosphorylation enrichment (c-Abl (mouse)) | phosphorylation enrichment (Fyn) | phosphorylation enrichment (MERTK) | phosphorylation enrichment (EPHB1) | phosphorylation enrichment (Fes) | phosphorylation enrichment (FGFR1) | phosphorylation enrichment (FGFR3) | phosphorylation enrichment (Jak2) | phosphorylation enrichment (c-Src) | SH2 binding enrichment (SHP2-C SH2) | SH2 binding enrichment (Grb2 SH2) | SH2 binding enrichment (c-Src SH2) |
| --- | --- | --- | --- | --- | --- | --- | --- | --- | --- | --- | --- | --- | --- | --- | --- | --- |
| VHNLDYYKETT [FGFR3_Y647_K650E] | 0.497 | 0.456 | 0.903 | 0.439 | 0.577 | 0.421 | 0.39 | 0.452 | 0.824 | 0.789 | 0.769 | 0.714 | 0.367 | 0.585 | 0.702 | 0.564 |
| VHNLNYYKKTT [FGFR3_Y647_D646N] | 0.449 | 0.464 | 0.506 | 0.32 | 0.671 | 0.435 | 0.528 | 0.429 | 0.682 | 0.447 | 0.665 | 0.728 | 0.487 | 0.746 | 1.04 | 0.539 |
| VHYLVYHHHHH [CACNA1H_Y519_H516Y] | 0.666 | 0.632 | 1.17 | 0.678 | 1.4 | 0.537 | 0.773 | 0.687 | 2.17 | 0.7 | 1.07 | 1.49 | 0.587 | 1.45 | 0.985 | 1 |
| VKMLPYTEVTR [GDI1_Y93_L92P] | 0.431 | 0.45 | 0.555 | 0.282 | 0.492 | 0.368 | 0.494 | 0.437 | 0.717 | 0.416 | 0.49 | 0.573 | 0.4 | 0.863 | 0.988 | 2.9 |
| VLAAQYTTVGR [SGSH_Y240_D235V] | 0.307 | 0.543 | 0.551 | 0.394 | 0.514 | 0.367 | 0.421 | 0.503 | 0.598 | 0.352 | 0.48 | 0.426 | 0.445 | 2.77 | 0.953 | 5.28 |
| VLDSHYPEDEV [C1QBP_Y188_C186S] | 0.564 | 0.516 | 1.33 | 0.51 | 0.746 | 0.473 | 0.488 | 0.611 | 1.26 | 0.52 | 0.736 | 1.16 | 0.525 | 0.697 | 1.06 | 0.573 |
| VLRQVYVDFEG [KMT2B_Y1707_R1705Q] | 0.722 | 0.86 | 1.16 | 0.579 | 0.692 | 1.85 | 0.465 | 0.877 | 1.28 | 0.721 | 0.871 | 0.993 | 1.42 | 1 | 0.833 | 0.938 |
| VMICAYLLHRG [PTEN_Y138] | 0.63 | 0.558 | 1.21 | 0.688 | 1.27 | 0.478 | 0.482 | 0.612 | 1.68 | 0.642 | 0.778 | 1.36 | 0.644 | 0.714 | 1.05 | 0.723 |
| VMSMNYRVGAL [BCHE_Y174_V170M] | 0.592 | 0.447 | 0.767 | 0.438 | 0.686 | 0.462 | 0.416 | 0.578 | 0.878 | 0.485 | 0.573 | 0.715 | 0.484 | 0.775 | 0.719 | 0.461 |
| VNYGAYINDFN [GLB1_Y488_K493N] | 1.09 | 0.533 | 1 | 0.462 | 0.703 | 0.87 | 0.469 | 0.737 | 1 | 0.451 | 0.616 | 0.748 | 0.675 | 1.05 | 9.16 | 6.95 |
| VPDTNYTSDEE [STK33_Y439_A437T] | 0.658 | 0.552 | 1.23 | 0.511 | 0.748 | 0.56 | 0.437 | 0.562 | 1.19 | 0.606 | 0.708 | 1.07 | 0.465 | 0.811 | 1.23 | 0.675 |
| VPVNGYQPVPA [ROR2_Y824] | 0.391 | 0.422 | 0.859 | 0.52 | 0.439 | 0.382 | 0.382 | 0.554 | 0.748 | 0.55 | 0.517 | 0.416 | 0.413 | 0.634 | 0.91 | 0.691 |
| VPVPGYTKLPE [SPRR3_Y146] | 0.642 | 0.487 | 0.865 | 0.473 | 0.988 | 0.464 | 0.499 | 0.544 | 1.05 | 0.531 | 0.671 | 0.848 | 0.419 | 0.445 | 0.635 | 0.458 |
| VQNIVYHTASI [CYP39A1_Y102_R103H] | 0.43 | 0.543 | 0.605 | 0.386 | 0.824 | 0.401 | 0.376 | 0.375 | 0.708 | 0.435 | 0.408 | 0.621 | 0.636 | 4.37 | 0.82 | 1.69 |
| VSSPKYGSNDE [TMCC2_Y473_D476N] | 0.536 | 0.426 | 0.867 | 0.509 | 0.801 | 0.445 | 0.454 | 0.452 | 0.912 | 0.406 | 0.619 | 0.857 | 0.514 | 0.657 | 0.722 | 0.519 |
| VTSLKYSTSPY [BRIP1_Y916] | 0.498 | 0.516 | 0.751 | 0.451 | 0.537 | 0.523 | 0.493 | 0.52 | 0.655 | 0.487 | 0.467 | 0.6 | 0.542 | 0.42 | 0.754 | 0.43 |

— the supplement of paper PMC10065799, “High-throughput profiling of sequence recognition by tyrosine kinases and SH2 domains using bacterial peptide display” (eLife, 2023)
